For 167 variants, abundance fitness results are on record in the Human Domainome abundance scans (Beltran et al. 2025).

B1: Nucleolar transcription factor 1, residues 408 to 469; numbered along this chain, P17480 (parent)
chain: KRPVSAMFIFSEEKRRQLQEERPELSESELTRLLARMWNDLSEKKKAKYKAREAALKAQSER

± gives the uncertainty stated by the source.

Variants of B1 are the subject of the data set. Put plainly: abundance fitness (aPCA) (normalised: wild type 0, dead -1); higher = more abundant; growth selection in yeast, the domain comes from the species named. The note with it: Homo sapiens.
Consider S42Y, for which the abundance fitness is -0.619 ± 0.099.
The figure for S42D is 0.002 ± 0.1; for S42P it is -0.081 ± 0.059.
The figure for S42I is -0.56 ± 0.097; for S42V it is -0.427 ± 0.036.
With S42H, the abundance fitness was -0.179 ± 0.22.
S42C: the abundance fitness was -0.155 ± 0.095.
The figure for L34S is -0.271 ± 0.064.
The figure for L34I is -0.074 ± 0.091; for L34C it is -0.049 ± 0.11.
For the variant L34Q, the abundance fitness was -0.525 ± 0.085.
As for N39V, the figure is -0.166 ± 0.054; as for N39I, -0.147 ± 0.12; as for N39A, -0.037 ± 0.042.
Take N39S: the abundance fitness was -0.054 ± 0.046.
Consider N39L, for which the abundance fitness was -0.122 ± 0.049.
The figure for N39R is -0.058 ± 0.037.
As for N39P, the figure is -0.608 ± 0.066.
As for K46S, the figure is -0.569 ± 0.069; as for K46V, -0.3 ± 0.043; as for K46M, -0.336 ± 0.07.
For the variant K46W, the abundance fitness is -0.736 ± 0.066.
The figure for R36H is -0.321 ± 0.24; for R36E it is -0.084 ± 0.054; for R36C it is -0.051 ± 0.078.
As to R36G, the abundance fitness is -0.111 ± 0.039.
As for R36M, the figure is -0.103 ± 0.066; as for R36D, 0.028 ± 0.095.
The figure for R62K is 0.042 ± 0.1; for R62L it is -0.094 ± 0.069.
For R62P, the abundance fitness is -0.232 ± 0.081.
The figure for R62D is 0.073 ± 0.15; for R62A it is 0.079 ± 0.18; for R62F it is -0.317 ± 0.34.
R62N: the abundance fitness is -0.224 ± 0.12.
As for L41F, the figure is -0.362 ± 0.14; as for L41M, -0.066 ± 0.074.
With L41I, the abundance fitness was -0.139 ± 0.11.
For L41H, the abundance fitness was -0.8 ± 0.13.
The figure for L41E is -0.388 ± 0.061.
Turning to S28I, the abundance fitness was -0.046 ± 0.049.
As to S28D, the abundance fitness is 0.055 ± 0.074.
Take S28K: the abundance fitness is -0.037 ± 0.09.
As for L18A, the abundance fitness was -0.167 ± 0.052.
As for L18H, the figure is -0.639 ± 0.12; as for L18Y, -0.063 ± 0.1.
The figure for L18V is -0.021 ± 0.041.
Consider V4M, for which the abundance fitness was -0.031 ± 0.079.
As to V4L, the abundance fitness was -0.031 ± 0.055.
As for V4A, the figure is -0.061 ± 0.074; as for E13L, -0.277 ± 0.063; as for E13R, -0.207 ± 0.059.
For E13A, the abundance fitness was -0.205 ± 0.051.
As for E13M, the figure is -0.124 ± 0.071.
The figure for E13H is -0.22 ± 0.19; for E13T it is -0.167 ± 0.089.
For the variant E13D, the abundance fitness is -0.04 ± 0.1.
The figure for E61K is -0.093 ± 0.097.
The figure for E61V is -0.069 ± 0.045.
As to E61F, the abundance fitness is -0.129 ± 0.12.
As to E21F, the abundance fitness is -0.238 ± 0.085.
Consider E21D, for which the abundance fitness is -0.126 ± 0.12.
Turning to E21C, the abundance fitness is -0.076 ± 0.1.
E21I: the abundance fitness was -0.111 ± 0.18.
Regarding E21R, the abundance fitness is -0.086 ± 0.044.
The figure for K48M is -0.022 ± 0.056.
For the variant K48R, the abundance fitness is -0.047 ± 0.05.
In the case of K48T, the abundance fitness is -0.005 ± 0.053.
Regarding K48G, the abundance fitness was -0.07 ± 0.052.
Turning to K48S, the abundance fitness is -0.048 ± 0.052.
As to K48N, the abundance fitness was found to be 0.029 ± 0.18.
As to K48D, the abundance fitness was 0.024 ± 0.13.
As for K48Q, the figure is -0.091 ± 0.18; as for K48A, 0.001 ± 0.053; as for K48C, -0.081 ± 0.15.
L25M: the abundance fitness was -0.011 ± 0.055.
As for L25G, the abundance fitness was -0.946 ± 0.067.
As for L25C, the figure is -0.134 ± 0.072.
As for E27M, the figure is -0.358 ± 0.085; as for E27V, -0.201 ± 0.055; as for E27K, -0.148 ± 0.089.
The figure for K57E is 0.017 ± 0.074.
As to K57L, the abundance fitness was -0.07 ± 0.044.
Take K57G: the abundance fitness is -0.073 ± 0.052.
Turning to K57A, the abundance fitness was -0.069 ± 0.049.
As for K57W, the figure is -0.146 ± 0.059; as for K57S, -0.005 ± 0.05; as for K57C, -0.048 ± 0.11.
As for K57T, the figure is -0.059 ± 0.054; as for S60G, 0.027 ± 0.04.
As for S60T, the figure is -0.037 ± 0.066.
As to S60N, the abundance fitness was -0.06 ± 0.11.
Regarding S60Q, the abundance fitness was -0.036 ± 0.065.
For the variant S60W, the abundance fitness was -0.049 ± 0.077.
As for S60P, the figure is -0.006 ± 0.056.
The figure for S60H is -0.317 ± 0.18.
S60C: the abundance fitness was -0.028 ± 0.077.
The figure for I9K is -0.258 ± 0.089.
The figure for I9Q is -0.202 ± 0.14; for I9A it is -0.095 ± 0.068.
In the case of I9D, the abundance fitness was -0.484 ± 0.091.
For I9R, the abundance fitness was -0.172 ± 0.046.
Take I9S: the abundance fitness is -0.191 ± 0.073.
As for I9E, the figure is -0.38 ± 0.12; as for I9H, -0.518 ± 0.38.
As for I9F, the figure is -0.113 ± 0.15; as for L30F, -0.327 ± 0.1; as for L30S, -0.178 ± 0.069.
On to L30E, for which the abundance fitness is -0.227 ± 0.09.
With L30K, the abundance fitness is -0.103 ± 0.076.
As for E24M, the figure is -0.148 ± 0.083; as for E24L, -0.209 ± 0.049.
The figure for M7D is -0.144 ± 0.11; for M7P it is -0.053 ± 0.077.
As for M7I, the figure is -0.151 ± 0.11; as for M7G, -0.131 ± 0.045; as for M7N, -0.086 ± 0.16.
For A54D, the abundance fitness worked out at 0.006 ± 0.13.
As to A54R, the abundance fitness is -0.031 ± 0.037.
In the case of A54M, the abundance fitness was -0.098 ± 0.084.
As for A54S, the abundance fitness was -0.071 ± 0.059.
As for A54N, the figure is -0.033 ± 0.099.
Consider A54I, for which the abundance fitness is -0.142 ± 0.084.
As for A54F, the figure is -0.181 ± 0.089; as for A54L, -0.056 ± 0.047.
The figure for E43R is -0.329 ± 0.064.
As to E43L, the abundance fitness is -0.205 ± 0.083.
With E43W, the abundance fitness is -0.276 ± 0.072.
The figure for E43S is -0.213 ± 0.17; for E43D it is -0.367 ± 0.29; for F10C it is -1.04 ± 0.17.
With F10E, the abundance fitness was -0.875 ± 0.084.
As for F10Q, the figure is -0.82 ± 0.072; as for F10Y, 0.039 ± 0.28.
F10L: the abundance fitness is -0.731 ± 0.071.
As for F10W, the figure is -0.075 ± 0.062; as for F10G, -0.683 ± 0.055.
In the case of K14W, the abundance fitness was -0.167 ± 0.067.
Turning to K14D, the abundance fitness is -0.729 ± 0.085.
For the variant K14Q, the abundance fitness is -0.064 ± 0.079.
As for K14E, the abundance fitness was -0.229 ± 0.079.
As for K14N, the abundance fitness was -0.086 ± 0.075.
With M37G, the abundance fitness is -0.32 ± 0.036.
The figure for M37P is -1.1 ± 0.092.
Turning to M37N, the abundance fitness is -0.305 ± 0.19.
Turning to E12I, the abundance fitness was -0.201 ± 0.1.
For the variant E12F, the abundance fitness was -0.315 ± 0.081.
As for E12C, the figure is -0.19 ± 0.11.
E12W: the abundance fitness was -0.253 ± 0.059.
Consider E12T, for which the abundance fitness is -0.069 ± 0.078.
As to R52A, the abundance fitness was -0.17 ± 0.066.
As for R52M, the figure is -0.092 ± 0.061; as for R52S, -0.137 ± 0.046.
The figure for R52Y is -0.324 ± 0.11.
The figure for R52Q is 0.002 ± 0.06; for K50D it is -0.189 ± 0.1; for K50S it is -0.131 ± 0.053.
With K50G, the abundance fitness was -0.251 ± 0.074.
As for K50A, the figure is -0.138 ± 0.076.
As for K50H, the abundance fitness was -0.036 ± 0.13.
K50V: the abundance fitness was -0.038 ± 0.064.
The figure for D40P is -0.911 ± 0.09.
As for D40L, the figure is -0.105 ± 0.052; as for D40S, -0.107 ± 0.064; as for R22N, -0.002 ± 0.089.
The figure for R22W is -0.132 ± 0.062; for R22D it is -0.139 ± 0.11.
